Assay results from publication PMC12377726 (Proceedings of the National Academy of Sciences of the …, 2025).
Where a chain is given by its changes, count along the chain named.

B1: G001_LD_V07A_VRC01c_46 (antibody, V domains shown)
VH: QVQLVQSGAEVKKPGASVKVSCKASGYTFTDYYMHWVRQAPGQGLEWMGWINPNSGGTNYAQKFQGWVTMTRDTSISTAYMELTRLRSDDTAVYYCAVRKNGGDCSFCFGYWGQGTLVTVSS
VL: QSVLTQPPSVSGAPGQRVTISCTGSSSNIGAGYDVHWYQQLPGTAPKLLIYGNNNRPSGVPDRFSGSKSGTSASLAITGLQAEDEADYYCQSYEMFGGGTKLTVL
B2: G001_gp1_V07_VRC01c_110 (antibody, V domains shown)
VH: QVQLVQSGAEVKKPGASVRVSCKASGYTFTDYYMHWVRQAPGQGLEWMGWINPNSGGTNYAQKFQGRVTMTRDTSISTAYMELSGLRSDDTAVYYCARITGYYDSSGYYCLDHWGQGTLVTVAS
VL: EIVLTQSPGTLSLSPGERATLSCRASQSGRSSYLAWYQQKPGQAPRLLIYGASSRATGIPDRFSGSGSGTDFTLTISRLEPEDFAVYYCHQYAAFGQGTKVEIK
B3: G001_LD_V07A_VRC01c_65 (antibody, V domains shown)
VH: QVQLVQSGAEVKKPGASVKVSCKASGYTFTGYYMHWVRQAPGQGLEWMGWINPNSGGTNYAQKFQGYVTMTRDTSISTAFMELSRLRSDDAAVYYCATSIAAPDSYWYFDLWGRGTLVTVSS
VL: B2 VL with G29V, R30T, H90Q, A93E, A94F, V101L
B4: G001_gp1_V07_VRC01c_99 (antibody, V domains shown)
VH: QVQLVQSGAEVKKPGASVKVSCKASGYTFTDYYMHWVRQAPGQGLEWMGWINPNSGGTNYAQKFQGRVTMTRDTSISTAYMDLSRLRSDDTAMYYCATSPHEYSTSWEFDSWGQGTLVTVSS
VL: B2 VL with E1D, G29V, R30S, Y33N, S53F, S54K, H90Q, A93E, A94T
B5: G001_gp1_V07_VRC01c_2021-0040 (antibody, V domains shown)
VH: QVQLVQSGAEVKKPGASVKVSCKASGYTFTGYYMHWVRQAPGQGLEWMGWINPNSGGSNYAQKFQGRVTMTRDRSITTAYMELSRLRSDDTAVYYCARDHTGTAGWYFDLWGRGTLVTVSS
VL: B2 VL with G29V, R30S, Q38H, H90Q, A93E, A94T, K104T
B6: G001_gp1_V07_VRC01c_91 (antibody, V domains shown)
VH: QVQLVQSGAEVKKPGASVKVSCKASGYTFTDYYIHWVRQAPGQGLEWMGWISPNSGGTNFAQKFQGSVTMTRDTSISTAYMELSRLRSDDTAVYFCARDGGWKRGWGFQFWGQGTLVTVSS
VL: QSALTQPPSASGSPGQSVTISCTGTSSDVGDYKYVSWYQQHPGKAPKLVIYEVSKRPSGVPDRFSGSKSGNTASLTVSGLQAEDEADYYCSSYEVFGGGTKLTVL
B7: G001_gp1_V07_VRC01c_2021-0044 (antibody, V domains shown)
VH: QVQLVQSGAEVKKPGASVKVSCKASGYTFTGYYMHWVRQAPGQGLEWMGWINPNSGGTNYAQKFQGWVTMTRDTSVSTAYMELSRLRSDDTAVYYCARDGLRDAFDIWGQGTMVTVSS
VL: QSALTQPASVSGPPGQSITISCTGTSSDFGGHNSVSWYQQHPGKAPKLMIYDVSNRPSGVSNRFSGSKSGNTASLTISGLQAEDEADYYCSSYKVFGGGTKLTVL
B8: G001_gp1_V07_VRC01c_97 (antibody, V domains shown)
VH: QVQLVQSGAEVKKPGASVKVSCKASGYSFTDYYMHWVRQAPGQGLEWMGWINPNSGGTNYAQKFQGRVTMTRDTSISTAYMELSRLRSDDTAVYYCASDVEMANRGGWKFDYWGQGTLVTVSS
VL: B7 VL with P13S, F29V, G31S, H32Y, S34L, K44T, D52E, N55K, S91C, K94E
B9: G001_gp1_V07_VRC01c_111 (antibody, V domains shown)
VH: QVQLVQSGAEVKKPGASVKVSCKASGYTFTGYYMHWVRQAPGQGLEWMGWIYPNSGGTNYVQEFQGRVTMTRDTSISTAYMELSRLRSDDTAVYYCATDNYTTSSMLLRTWGQGTLVTVSS
VL: DIQMTQSPSTLSASVGDRVTITCRASQSISSWLAWYQQKPGKAPKLLIYKASSLESGVPSRFSGSGSGTEFTLTISSLQPDDFATYYCQQYETFGQGTKVEIK
B10: G001_gp1_V08_VRC01c_114 (antibody, V domains shown)
VH: QVQLVQSGAEVKKPGASGKVSCKASGYTFTDYYMYWVRQAPGQGLEWIGWINPTSGGSNYAQKFQGRVTMTRDTSISTAYMELSRLRSDDTAVYYCARRSEDRKAFDIWGQGTMVTVSS
VL: B9 VL with R61K, E92D, V100L
B11: G001_gp1_V07_VRC01c_2021-0033 (antibody, V domains shown)
VH: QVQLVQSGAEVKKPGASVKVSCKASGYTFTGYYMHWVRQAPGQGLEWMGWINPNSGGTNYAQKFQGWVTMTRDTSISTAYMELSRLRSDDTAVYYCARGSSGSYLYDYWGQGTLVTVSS
VL: B9 VL
B12: G001_LD_V07A_VRC01c_41 (antibody, V domains shown)
VH: QVQLVQSGAEVKKPGASVRVSCRASGYTFSDYYIHWVRQAPGQGLEWMGWINPTSGGTNYAQRFQGRVTMTRDTSISTAYMELSRLRSDDTAVYYCARNLGNSGWYFAWGQGTLVTVSS
VL: B9 VL with S77N, A84G
B13: G001_gp1_V07_VRC01c_2021-0034 (antibody, V domains shown)
VH: QVQLVQSGAEVKKPGASVKVSCKASGYTFSGYYMHWVRQAPGQGLEWMGWINPNSGGTNYAQKFQGGVTMTRDTSISTAYMELSSLRSDDTAVYYCAREGGLGATAFDYWGQGTLVSVSS
VL: B9 VL with V100L
B14: G001_gp1_V07_VRC01c_2021-0032 (antibody, V domains shown)
VH: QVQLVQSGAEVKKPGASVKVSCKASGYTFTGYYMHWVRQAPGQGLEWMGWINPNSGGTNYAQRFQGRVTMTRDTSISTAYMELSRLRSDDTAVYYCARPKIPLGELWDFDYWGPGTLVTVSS
VL: EIVMTQSPATLSVSPGERATLSCRASQSVSSNLAWYQQKPGQAPRLLIYGASTRATGIPARFSGSGSGTEFTLTISSLQSEDFAVYYCQQYEFFGPGTKVDIK
B15: G001_gp1_V07_VRC01c_94 (antibody, V domains shown)
VH: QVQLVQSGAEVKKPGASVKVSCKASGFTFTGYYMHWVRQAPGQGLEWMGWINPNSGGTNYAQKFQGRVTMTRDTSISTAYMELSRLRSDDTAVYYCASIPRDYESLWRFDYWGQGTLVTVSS
VL: B14 VL with E92N, F93T, P96Q, K99R, V100L, D101E
B16: G001_gp1_V07_VRC01c_90 (antibody, V domains shown)
VH: QVQLVQSGAEVKKPGASVKVSCKASGYTFTDYYMHWVRQAPGQGLEWMGWINPNSGGTNYAQKFQGRVTMTRDTSISTAYVVLTRLRSDDTAVYYCATVEWGGSGWNYDYWGQGTLVTVSS
VL: B14 VL with F93T, P96Q, D101E
B17: G001_gp1_V08_VRC01c_115 (antibody, V domains shown)
VH: QVQLVQSGAEVKKPGASVKVFCKTSGYIFTDYYMHWVRQAPGQGLEWMGWINPNSGGTNYAQKFQGRVTMTRDTSISTAYMELSRLRSDDTAVYYCARAYYGDYGDYWGQGTLVTVSS
VL: DIVMTQSPDSLAVSLGERATINCKSSQSVLYSSDNKNYLSWYQQKPRQPPKLLIYWASTRESGVPDRFTGSGSGTDFTLTISSLQAEDVAVYYCQQYWTFGQGTKVEIK
B18: G001_gp1_V07_VRC01c_2021-0035 (antibody, V domains shown)
VH: QVQLVQSGAEVKKPGASVKVSCKASGYTFTDYYLHWVRQAPGQGLEWMGWINPNSGGTNYAQKFQDWVTMTRDTSISTAYMELSRLRSDDTAVYYCARDGLAARWDFDSWGQGTLVTVSS
VL: SYELTQPPSVSVAPGQTARITCGGNNIGSKSVHWYQQKPVQAPVLVVYDDGDRPSGIPERFSGSNSGNTATLTISRVEAGDEADYYCQVLEVFGTGTKVTVL
B19: G001_gp1_V07_VRC01c_2021-0031 (antibody, V domains shown)
VH: not shown
VL: DIQMTQSPSSLSASVGDRVTITCQASQDISEYLNWYQQKPGKAPKLLIYDASNLETGVPSRFSGSGSGTDFTFTISSLQPEDVATYYCQQYEFFGGGTKVEIK
B20: G001_gp1_V07_VRC01c_2021-0037 (antibody, V domains shown)
VH: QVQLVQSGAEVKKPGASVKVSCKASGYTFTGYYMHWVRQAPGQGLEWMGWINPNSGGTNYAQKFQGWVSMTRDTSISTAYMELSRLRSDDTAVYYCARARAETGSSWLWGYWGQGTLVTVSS
VL: B19 VL with E31N, V83I, Q90E, E92D, F93T
B21: G001_LD_V07A_VRC01c_40 (antibody, V domains shown)
VH: not shown
VL: B19 VL with E31N, G66A, D70E, F71S, T72S, V83I, F93T, G96P, E101D
B22: G001_gp1_V07_VRC01c_2021-0048 (antibody, V domains shown)
VH: RVQLVQSGAEVKKPGASVKVSCKASGYTFTGYYMHWVRQAPGQGLEWMGWINPNSGGTNYAQKFQGRVTMTRATSISTAYMELSRLRFDDTAVYYCARGGSRGWSLDYWGQGTLVTVSS
VL: B19 VL with E31N, P40L, T72S, F73L, V83I, F93T, G96Q, V100L
B23: G001_gp1_V07_VRC01c_2021-0039 (antibody, V domains shown)
VH: QVQLVQSGAEVKKPGASVRVSCKASGNTFTDYYMHWVRQAPGQGLEWMGWINPNSGGTNYAQKFQGRVTMTRDTSISTAYMELSRLRSDDTAVYYCASPGAAGQPWGFGYWGQGTLVTVSS
VL: B19 VL with E31N, N53H, G66E, D70E, F71C, F73L, V83I
B24: G001_gp1_V07_VRC01c_2021-0038 (antibody, V domains shown)
VH: not shown
VL: B19 VL with D28G, E31N, Q38L, Y49S, V83I, E92D, F93Y, G96P, K99T, E101D
B25: G001_gp1_V07_VRC01c_92 (antibody, V domains shown)
VH: QVQLVQSGAEVRKPGASVKVSCKASGYTFTDSYMHWVRQAPGQGLEWMGWINPNSGGTNYAQKFQGRVTMTRDTSITTAYMELSRLRFDDTAIYYCATVATIAAPWAFDYWGQGALVTVSS
VL: B19 VL with T20S, S30N, E31N, A51V, E55Q, S65R, V83S, F93R, G96Q, V100L
B26: G001_gp1_V07_VRC01c_2021-0036 (antibody, V domains shown)
VH: QVQLVQSGAEVKKPGASVKVSCKASGYTFTGYYMHWVRQAPGQGLEWMGWINPNSGGTNYAQKFQDWVTMTRDTSISTAYMEVSRLKSDDTAVYYCARGRAGTTAWWYFDLWGRGALVTVSS
VL: B19 VL with E31N, E92D, F93S, G96P, E101D

Biological target: eOD-GT8 (engineered outer domain germline-targeting version 8), monomer (HIV-1 gp120 engineered outer domain, …)

| Binder | binding result |
| --- | --- |
| B1 | binds |
| B2 | binds |
| B3 | binds |
| B4 | binds |
| B5 | binds |
| B6 | binds |
| B7 | binds |
| B8 | binds |
| B9 | binds |
| B10 | binds |
| B11 | binds |
| B12 | binds |
| B13 | binds |
| B14 | binds |
| B15 | binds |
| B16 | binds |
| B17 | binds |
| B18 | binds |
| B19 | binds |
| B20 | binds |
| B21 | binds |
| B22 | binds |
| B23 | binds |
| B24 | binds |
| B25 | binds |
| B26 | binds |
